How the values were obtained:
[1] = Activity screening of GOOX variants and glucose oxidase on GlcA; assay type: biochemical; conditions: for nmol oxidized GlcA Mean: enzyme 16 nM, 37° C., 10 mM GlcA (FIG. 11 legend; b102 says 100 mM), 100 mM Tris pH 8.0 (GOOX variants) or 50 mM sodium acetate pH 5.0 (GO); for activity with GlcA as substrate (in words): screening, compared with wtGOOX
Protocol: (§1) FIG. 11: Activity screening of GOOX variants and glucose oxidase (GO) on GlcA and MeGlcA substrates. The enzymes (16 nM) were assayed at 37° C. with 10 mM GlcA and 1 mM MeGlcA in 100 mM Tris buffer pH 8.0 (for GOOX variants) or 50 mM sodium acetate pH 5.0 (for GO). The dotted line indicates the activity of GOOX-VN for MeGlcA for ease of comparison. “CtCBM22A-wtGOOX” and “CtCBM22A-Y300A” represent fusion proteins where the C terminus of the xylan-binding protein CtCBM22A (described in Vuong and Master, 2014) is fused to the N terminus GOOX.
(§2) The specific activity of GOOX-Y300A (16 nM) on MeGlcA and GlcA (1 mM) was measured in 50 mM Tris buffer pH 8.0 at 40° C. The amount of methyl glucaric acid was determined by measuring the release of H2O2 using a previously published colorimetric assay (Lin et al., 1991). The kinetics of GOOX-Y300A on these acidic sugars were measured at the same condition, but using up to 60 mM MeGlcA and GlcA and in 0.3 M Tris buffer pH 8.0.

[2] = Activity screening of GOOX variants and glucose oxidase on MeGlcA; assay type: biochemical; conditions: for nmol oxidized MeGlcA Mean: enzyme 16 nM, 37° C., 1 mM MeGlcA (FIG. 11 legend; b102 says 10 mM), 100 mM Tris pH 8.0 (GOOX variants) or 50 mM sodium acetate pH 5.0 (GO)
Protocol: as §1, §2

Molecule | nmol oxidized GlcA Mean [1] [nmol] | activity with GlcA as substrate (in words) [1] | nmol oxidized MeGlcA Mean [2] [nmol] | activity with MeGlcA as substrate (in words) ([2]; screening, compared with wtGOOX)
N388S: GOOX variant with N388S relative to SEQ ID NO: 1 (protein, listed as Sarocladium strictum, (1)..(206) FAD-binding domain; (207)..(474) substrate-binding domain) NSINACLAAADVEFHEEDSEGWEMDGTAFNLRVDYDPVAIAIPRSTEDIAAAVQCGLDAGVQISAKGGGHSYGSYGFGGEDGHLMLELDRMYRVSVDDDNVATIQGGARLGYTALELLDQGNRALTHGTCPAVGIGGHVLGGGYGFATHTHGLTLDWLVGATVVLADASIVHVSKTENADLFWALRGGGGGFAIVSEFEFNTFEAPEIITTYQVTTTWNRKQHVAGLKALQDWAENTMPRELSMRLEINANALNWEGNYFGNAKDLKKVLQPIMKKAGGKSTISKLVETDWYGQINTYLYGADLNITYNYDVHEYFYANSLTAPRLSDEAISAFVDYKFDNSSVRPGRGWWIQWDFHGGKNSALASHSNDETAYAHRDQLWLWQFYDSIYDYENNTSPYPESGFEFMQGFVATIEDTLPEDRKGKYFNYADTTLDKEEAQKLYWRGNLEKLQAIKAKYDPEDVFGNVVSVEPIA | -0.02652 | improved activity over wtGOOX | 1.4023 | improved activity over wtGOOX
Y72F: GOOX variant with Y72F relative to SEQ ID NO: 1 (protein, listed as Sarocladium strictum, (1)..(206) FAD-binding domain; (207)..(474) substrate-binding domain) NSINACLAAADVEFHEEDSEGWEMDGTAFNLRVDYDPVAIAIPRSTEDIAAAVQCGLDAGVQISAKGGGHSFGSYGFGGEDGHLMLELDRMYRVSVDDDNVATIQGGARLGYTALELLDQGNRALTHGTCPAVGIGGHVLGGGYGFATHTHGLTLDWLVGATVVLADASIVHVSKTENADLFWALRGGGGGFAIVSEFEFNTFEAPEIITTYQVTTTWNRKQHVAGLKALQDWAENTMPRELSMRLEINANALNWEGNYFGNAKDLKKVLQPIMKKAGGKSTISKLVETDWYGQINTYLYGADLNITYNYDVHEYFYANSLTAPRLSDEAISAFVDYKFDNSSVRPGRGWWIQWDFHGGKNSALASHSNDETAYAHRDQLWLWQFYDNIYDYENNTSPYPESGFEFMQGFVATIEDTLPEDRKGKYFNYADTTLDKEEAQKLYWRGNLEKLQAIKAKYDPEDVFGNVVSVEPIA | 0.05395 | improved activity over wtGOOX | 0.6279 | 
Q353A: GOOX variant with Q353A relative to SEQ ID NO: 1 (protein, listed as Sarocladium strictum, (1)..(206) FAD-binding domain; (207)..(474) substrate-binding domain) NSINACLAAADVEFHEEDSEGWEMDGTAFNLRVDYDPVAIAIPRSTEDIAAAVQCGLDAGVQISAKGGGHSYGSYGFGGEDGHLMLELDRMYRVSVDDDNVATIQGGARLGYTALELLDQGNRALTHGTCPAVGIGGHVLGGGYGFATHTHGLTLDWLVGATVVLADASIVHVSKTENADLFWALRGGGGGFAIVSEFEFNTFEAPEIITTYQVTTTWNRKQHVAGLKALQDWAENTMPRELSMRLEINANALNWEGNYFGNAKDLKKVLQPIMKKAGGKSTISKLVETDWYGQINTYLYGADLNITYNYDVHEYFYANSLTAPRLSDEAISAFVDYKFDNSSVRPGRGWWIAWDFHGGKNSALASHSNDETAYAHRDQLWLWQFYDNIYDYENNTSPYPESGFEFMQGFVATIEDTLPEDRKGKYFNYADTTLDKEEAQKLYWRGNLEKLQAIKAKYDPEDVFGNVVSVEPIA | 0.05212 | improved activity over wtGOOX | 0.594 | 
Y300N: GOOX variant with Y300N relative to SEQ ID NO: 1 (protein, listed as Sarocladium strictum, (1)..(206) FAD-binding domain; (207)..(474) substrate-binding domain) NSINACLAAADVEFHEEDSEGWEMDGTAFNLRVDYDPVAIAIPRSTEDIAAAVQCGLDAGVQISAKGGGHSYGSYGFGGEDGHLMLELDRMYRVSVDDDNVATIQGGARLGYTALELLDQGNRALTHGTCPAVGIGGHVLGGGYGFATHTHGLTLDWLVGATVVLADASIVHVSKTENADLFWALRGGGGGFAIVSEFEFNTFEAPEIITTYQVTTTWNRKQHVAGLKALQDWAENTMPRELSMRLEINANALNWEGNYFGNAKDLKKVLQPIMKKAGGKSTISKLVETDWYGQINTYLNGADLNITYNYDVHEYFYANSLTAPRLSDEAISAFVDYKFDNSSVRPGRGWWIQWDFHGGKNSALASHSNDETAYAHRDQLWLWQFYDNIYDYENNTSPYPESGFEFMQGFVATIEDTLPEDRKGKYFNYADTTLDKEEAQKLYWRGNLEKLQAIKAKYDPEDVFGNVVSVEPIA | -0.03749 |  | 0.08201 | 
W351A: GOOX variant with W351A relative to SEQ ID NO: 1 (protein, listed as Sarocladium strictum, (1)..(206) FAD-binding domain; (207)..(474) substrate-binding domain) NSINACLAAADVEFHEEDSEGWEMDGTAFNLRVDYDPVAIAIPRSTEDIAAAVQCGLDAGVQISAKGGGHSYGSYGFGGEDGHLMLELDRMYRVSVDDDNVATIQGGARLGYTALELLDQGNRALTHGTCPAVGIGGHVLGGGYGFATHTHGLTLDWLVGATVVLADASIVHVSKTENADLFWALRGGGGGFAIVSEFEFNTFEAPEIITTYQVTTTWNRKQHVAGLKALQDWAENTMPRELSMRLEINANALNWEGNYFGNAKDLKKVLQPIMKKAGGKSTISKLVETDWYGQINTYLYGADLNITYNYDVHEYFYANSLTAPRLSDEAISAFVDYKFDNSSVRPGRGWAIQWDFHGGKNSALASHSNDETAYAHRDQLWLWQFYDNIYDYENNTSPYPESGFEFMQGFVATIEDTLPEDRKGKYFNYADTTLDKEEAQKLYWRGNLEKLQAIKAKYDPEDVFGNVVSVEPIA | 0.06492 | improved activity over wtGOOX | 0.7166 | 
E247A: GOOX variant with E247A relative to SEQ ID NO: 1 (protein, listed as Sarocladium strictum, (1)..(206) FAD-binding domain; (207)..(474) substrate-binding domain) NSINACLAAADVEFHEEDSEGWEMDGTAFNLRVDYDPVAIAIPRSTEDIAAAVQCGLDAGVQISAKGGGHSYGSYGFGGEDGHLMLELDRMYRVSVDDDNVATIQGGARLGYTALELLDQGNRALTHGTCPAVGIGGHVLGGGYGFATHTHGLTLDWLVGATVVLADASIVHVSKTENADLFWALRGGGGGFAIVSEFEFNTFEAPEIITTYQVTTTWNRKQHVAGLKALQDWAENTMPRELSMRLAINANALNWEGNYFGNAKDLKKVLQPIMKKAGGKSTISKLVETDWYGQINTYLYGADLNITYNYDVHEYFYANSLTAPRLSDEAISAFVDYKFDNSSVRPGRGWWIQWDFHGGKNSALASHSNDETAYAHRDQLWLWQFYDNIYDYENNTSPYPESGFEFMQGFVATIEDTLPEDRKGKYFNYADTTLDKEEAQKLYWRGNLEKLQAIKAKYDPEDVFGNVVSVEPIA | 0.05669 | improved activity over wtGOOX | 0.724 | 
Q353N: GOOX variant with Q353N relative to SEQ ID NO: 1 (protein, listed as Sarocladium strictum, (1)..(206) FAD-binding domain; (207)..(474) substrate-binding domain) NSINACLAAADVEFHEEDSEGWEMDGTAFNLRVDYDPVAIAIPRSTEDIAAAVQCGLDAGVQISAKGGGHSYGSYGFGGEDGHLMLELDRMYRVSVDDDNVATIQGGARLGYTALELLDQGNRALTHGTCPAVGIGGHVLGGGYGFATHTHGLTLDWLVGATVVLADASIVHVSKTENADLFWALRGGGGGFAIVSEFEFNTFEAPEIITTYQVTTTWNRKQHVAGLKALQDWAENTMPRELSMRLEINANALNWEGNYFGNAKDLKKVLQPIMKKAGGKSTISKLVETDWYGQINTYLYGADLNITYNYDVHEYFYANSLTAPRLSDEAISAFVDYKFDNSSVRPGRGWWINWDFHGGKNSALASHSNDETAYAHRDQLWLWQFYDNIYDYENNTSPYPESGFEFMQGFVATIEDTLPEDRKGKYFNYADTTLDKEEAQKLYWRGNLEKLQAIKAKYDPEDVFGNVVSVEPIA | 0.09327 | improved activity over wtGOOX | 0.4522 | 
